The text below walks through data of the RNAGym collection of RNA variant scans (doi:10.1093/molbev/msab373).

B1: Azoarcus group I ribozyme (parent)
chain: GUGCCUUGCGCCGGGAAACCACGCAAGGGAUGGUGUCAAAUUCGGCGAAACCUAAGCGCCCGCCCGGGCGUAUGGCAACGCCGAGCCAAGCUUCGGCGCCUGCGCCGAUGAAGGUGUAGAGACUAGACGGCACCCACCUAAGGCAAACGCUAUGGUGAAGGCAUAGUCCAGGGAGUGGCGAAAGUCACACAAACCGG

In this series the parent is B1. Description: reverse-splicing fitness (ratio to wild type); higher = more active; in vitro selection; Mg2+ level not given. An outline of the steps: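 An in vitro group I ribozyme library with randomized positions was T7-transcribed and gel-purified. In triplicate, 10 pmol RNA in EPPS pH 7.5 was reacted with 50 pmoles of a 30-nt RNA substrate for 1 h at 37 °C across several added MgCl2 levels (1–48 mM), then stopped with EDTA. Products were reverse transcribed from a substrate-complementary primer, PCR-amplified and sequenced (HiSeq 4000). Fitness is a variant's read proportion after selection over that before, normalised to wild type.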
With C82G A111G A145C C150U C169G, the reverse-splicing fitness is 0.00753.
Turning to C82U A111U A145C C169U U176G, the reverse-splicing fitness is 0.00463.
In the case of A111G A120C C150U C169U U176A it was 0.0417.
The value for A111G A120G A145U C150U C169G U176C was 0.0783; that for C82G A111U A145C C150U C169G U176A was 0.022.
The value for A111U A145G C150G C169A U176C was 0.0121; that for A111G A120C A145G C150G U176A was 0.0105.
Turning to C82U A120U A145G C169G, the reverse-splicing fitness stood at 0.00532.
In the case of A120U C150A C169U it was 0.038.
In the case of A111G A120C A145C C150A C169G U176C it was 0.00982; in that of A111U A145G C169U U176G, 0.00581; in that of A111U C150U C169U U176A, 0.0262.
The value for C82G A111C C150G was 0.0174.
On to C82G A111U A120C C150G C169A U176A, for which the reverse-splicing fitness was found to be 0.0137.
The value for C82A A120C C150U C169A U176G was 0.00673; that for C82G A120C C150G C169U U176A was 0.00577.
Take C82G A111C A120G A145U C150U C169A U176C: the reverse-splicing fitness came to 0.0109.
In the case of A111G A120C C169G it was 0.0129; in that of C82A A111G A120C C150G C169U, 0.00991.
The value for C82U A111G A120C A145U C150A C169U was 0.00709.
As to C82A A120G C150U U176G, the reverse-splicing fitness worked out at 0.00727.
In the case of C82G A111C A120C A145C C150G C169U U176A, the reverse-splicing fitness amounted to 0.00824.
In the case of C82U A111G A120G A145G C150G it was 0.00721.
The value for C82U A111C A120C A145G C150A C169G was 0.00891; that for C82U A111U A120C A145U C169G U176G was 0.00433; that for A111G A120G A145U C150A C169A U176C was 0.015.
Turning to C82U A111G A120C A145G C150G C169U U176C, the reverse-splicing fitness was determined as 0.0109.
In the case of A120U A145U C150U C169U U176C it was 0.0952; in that of A120C C150G C169U U176A, 0.0117; in that of C82U A111G A120U A145G C169U, 0.00406.
The value for C82A A111U A120C C150U C169A U176C was 0.0174; that for A111G A120U A145U C169G U176A was 0.00865.
The value for C82G A111C A120C A145U C150A C169U U176G was 0.00817; that for A111U A120G A145G C150U C169G was 0.166.
In the case of C82A A111G A120C A145G C150U C169G, the reverse-splicing fitness is 0.0101.
In the case of C82G C150G C169G U176A it was 0.00727.
In the case of C82A A111C A120U A145G C150G C169G U176C it was 0.00768.
The value for C82U A111G A120G A145C C150G U176A was 0.00404; that for C82U A111C A120C A145U C150U C169U U176C was 0.0161.
For the variant A111C A120U A145U C150G C169G U176A, the reverse-splicing fitness worked out at 0.00267.
The value for C82U A111U A145U C150U C169G U176G was 0.00583; that for C82G A111C C150U C169G U176C was 0.0174; that for C82U A111U A120U C150A C169G U176C was 0.00448.
In the case of C82U A111C A145U C150A C169A U176G it was 0.00756.
The value for A111U A120G A145U C150A C169A was 0.0164; that for A120G A145C C150G C169A U176A was 0.016; that for C82A A111C A120C A145C C150A C169G U176A was 0.0296.
With A111C A145C C150G C169A U176C, the reverse-splicing fitness was found to be 0.00833.
In the case of C82G A111U A120C A145U C169U U176A it was 0.0149; in that of A120U A145G C150U C169G U176C, 0.063.
The value for A120U A145C C150G C169G U176G was 0.00252; that for C82G A111U A120G C150G C169A U176A was 0.0115.
In the case of A111U A120C A145U C150A U176G it was 0.0114.
Consider C82G A111U A120G C150A C169A U176C, for which the reverse-splicing fitness was 0.0211.
The value for C82G A120G A145G C150U C169U U176C was 0.0187; that for C82G A111G A120U C169G U176C was 0.00434.
With C82U A111C A120U A145U C150A C169A U176A, the reverse-splicing fitness was 0.00217.
The value for A111C A120C C169U was 0.183; that for A145G C150U C169G was 0.239.
In the case of C82G A111G A120G A145C C169G U176G it was 0.00483; in that of C82A A111U A145C C169G U176A, 0.0281.
Take C82U A120G C150G C169A U176A: the reverse-splicing fitness is 0.00927.
In the case of C82A A111G A120U A145U C150U C169A it was 0.00329; in that of C82U A111G A120U A145G C150U C169A U176G, 0.00217.
Turning to C82G A111G A145G U176C, the reverse-splicing fitness amounted to 0.27.
The value for A111C A120U A145U C150U U176C was 0.215; that for C82U A120G A145C U176C was 0.0121; that for C82U A111U A120G A145G C150G C169A U176C was 0.0113.
Regarding C82G A120U A145G U176G, the reverse-splicing fitness was 0.0134.
In the case of C82G A111G A120C A145U C150U, the reverse-splicing fitness worked out at 0.0494.
C82G A111G A120U A145U C150A C169A U176G: the reverse-splicing fitness is 0.00211.
The value for A120U A145C C150A C169G U176G was 0.00221; that for C82G A111C A120G A145U C150A C169G was 0.00764; that for C82A A111G A120C A145U C150A C169U U176A was 0.0152.
With C82U A111G A145G C150A C169G U176C, the reverse-splicing fitness stood at 0.0236.
The value for A111C A120U A145C C150G C169A was 0.00389; that for C82A A120C A145U C150G C169G U176G was 0.00467.
In the case of A111C A145C C150G it was 0.246; in that of C82U A111C A120G C150A C169U U176A, 0.0192.
In the case of C82U A111G A120G A145U C150A C169G U176C it was 0.0137; in that of A111U A120C A145U C150A C169A U176A, 0.0108; in that of A111G A120C C150A, 0.124.
In the case of A111U A120G A145U C150U C169U, the reverse-splicing fitness is 0.105.
